Measured values: paper PMC3125217

Columns and labels:
Test in all cases: inhibition of PE/PC monolayer binding (surface pressure, Wilhelmy technique); spectrin polypeptides preincubated 30 min at room temperature with ankSBD, then injected under a PE/PC 3:2 monolayer; 5 mM Tris/HCl pH 7.5, 0.5 mM EDTA, 150 mM NaCl, 0.5 mM dithiothreitol, 1 mM NaN3; 21°C
[1] = target: ankBDn triple mutant CLSC (W1771C, M1778S, W1779C) (UniProt P11277)
[2] = target: ankBDn triple mutant SSSW (W1771S, L1775S, M1778S) (UniProt P11277)
[3] = target: recombinant ankyrin-binding domain of erythroid β-spectrin (ankBDn), wild type (UniProt P11277)

A Ki [1] of 170 pM, a Ki [2] of 200 pM and a Ki [3] of 150 pM were found for “recombinant spectrin-binding domain of erythrocyte ankyrin (ankSBD) (from UniProt P16157 1-1881) (domain or fragment)” in this work.
